Patent publication US8114832

Target: endostatin (UniProt P39060)
Assay: SPR (Biacore), Fn F4-5 immobilized on CM5 chip, concentration series of endostatin

endostatin, sequence (P39060 1572-1754): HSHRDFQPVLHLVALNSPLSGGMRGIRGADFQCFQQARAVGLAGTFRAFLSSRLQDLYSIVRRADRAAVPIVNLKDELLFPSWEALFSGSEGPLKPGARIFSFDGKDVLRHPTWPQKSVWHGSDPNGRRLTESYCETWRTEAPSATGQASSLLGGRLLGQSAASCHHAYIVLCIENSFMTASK

Substance: Fn F4-5-His6 (from UniProt P02751 182-276)
- concentration of ligand that results in half maximum binding: 800 nM
